Laboratory results taken from publication PMC4972676 (Structure (London, England : 1993), 2016).

Legend:
[1] = molecular target: hRpn13 pleckstrin-like receptor for ubiquitin (Pru) domain (human, UniProt Q16186 1-150); assay: ITC
M1 diubiquitin = M1 diubiquitin (UniProt P0CG48 1-76; P0CG48 1-76); assay: pull-down

Sequence of hRpn13 pleckstrin-like receptor for ubiquitin (Pru) domain (Q16186 1-150): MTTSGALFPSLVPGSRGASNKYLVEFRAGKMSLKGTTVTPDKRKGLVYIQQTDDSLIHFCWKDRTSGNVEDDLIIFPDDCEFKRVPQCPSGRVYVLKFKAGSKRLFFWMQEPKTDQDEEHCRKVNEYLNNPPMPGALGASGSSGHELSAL

Row | Kd [1] | binding result (M1 diubiquitin) | Binder
1 | 9.3 ± 0.5 µM | – | hPLIC2 ubiquitin-like (UBL) domain (domain or fragment, human, UniProt Q9UHD9 33-107, looked up) IKVTVKTPKEKEEFAVPENSSVQQFKEAISKRFKSQTDQLVLIFAGKILKDQDTLIQHGIHDGLTVHLVIKSQNR
2 | – | binds | GST-hRpn13^Pru (domain or fragment, human) TTSGALFPSLVPGSRGASNKYLVEFRAGKMSLKGTTVTPDKRKGLVYIQQTDDSLIHFCWKDRTSGNVEDDLIIFPDDCEFKRVPQCPSGRVYVLKFKAGSKRLFFWMQEPKTDQDEEHCRKVNEYLNNPPMPGALGASGSSGHELSAL
